Patent US20200002414A1 (published 2020)
Read-outs that look alike come from different tables or passages of the source.

How the values were obtained:
human Ror2 [1] = target: T1, human Ror2 (human, UniProt Q01974 34-403, limits assumed); test: ELISA, human Ror2, pH 6.0
T1 construct: also called hROR2; receptor tyrosine kinase-like orphan receptor 2

human Ror2 [2] = target: T1, human Ror2; test: ELISA, human Ror2, pH 7.4
human Ror2 [3] = target: T1, human Ror2; test: ELISA, human Ror2; ratio of signal at pH 6.0 to pH 7.4
human Ror2 [4] = target: T1, human Ror2; test: ELISA, human Ror2, pH 6.0; remark: listed apart in the source
human Ror2 [5] = target: T1, human Ror2; test: ELISA, human Ror2, pH 7.4; remark: listed apart in the source
human Ror2 [6] = target: T1, human Ror2; test: ELISA, human Ror2; ratio of signal at pH 6.0 to pH 7.4; remark: listed apart in the source

T1 sequence (Q01974 34-403 limits assumed): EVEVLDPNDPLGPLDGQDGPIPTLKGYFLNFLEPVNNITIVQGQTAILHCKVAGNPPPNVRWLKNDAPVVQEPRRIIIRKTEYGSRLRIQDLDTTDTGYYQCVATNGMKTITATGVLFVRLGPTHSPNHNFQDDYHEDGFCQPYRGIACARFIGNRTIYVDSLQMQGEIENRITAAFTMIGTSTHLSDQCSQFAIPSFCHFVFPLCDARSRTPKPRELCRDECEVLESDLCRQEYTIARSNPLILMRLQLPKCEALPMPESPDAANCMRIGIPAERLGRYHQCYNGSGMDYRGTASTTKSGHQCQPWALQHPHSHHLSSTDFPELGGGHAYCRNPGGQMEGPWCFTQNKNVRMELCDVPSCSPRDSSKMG

B1: LC-V029E (antibody, V domains shown)
VH: EVQLQQSGPELVKPGASVKISCKTSGYTFTEYTMHWMKQSHRKSLEWIGGINTNNGGTGYNQKFKGKATLTVDKSSSTAYMELRSLTSEDSAVYFCARGSLYSYGNSYFDYWGQGTLVTVSS
VL: QIVLTQSPAIMSASPGEKVTITCSATSSESYMHWFQQKPGTSPKLWIYGTSNLASGVPARFSGSGSGTSYSLTISRMEAEDAATYYCQQRSSYPFTFGQGTKVEIK
Human Ror2 [1]
  Affinity ELISA pH 6.0: 0.406
Human Ror2 [2]
  Affinity ELISA pH 7.4: 0.129
Human Ror2 [3]
  ratio, pH 6.0/7.4: 3.15

B2: LC-Q089E (antibody, V domains shown)
VH: EVQLQQSGPELVKPGASVKISCKTSGYTFTEYTMHWMKQSHRKSLEWIGGINTNNGGTGYNQKFKGKATLTVDKSSSTAYMELRSLTSEDSAVYFCARGSLYSYGNSYFDYWGQGTLVTVSS
VL: QIVLTQSPAIMSASPGEKVTITCSATSSVSYMHWFQQKPGTSPKLWIYGTSNLASGVPARFSGSGSGTSYSLTISRMEAEDAATYYCQERSSYPFTFGQGTKVEIK
Human Ror2 [1]
  Affinity ELISA pH 6.0: 0.438
Human Ror2 [2]
  Affinity ELISA pH 7.4: 0.251
Human Ror2 [3]
  ratio, pH 6.0/7.4: 1.74

B3: HC-T053E (antibody, V domains shown)
VH: EVQLQQSGPELVKPGASVKISCKTSGYTFTEYTMHWMKQSHRKSLEWIGGINENNGGTGYNQKFKGKATLTVDKSSSTAYMELRSLTSEDSAVYFCARGSLYSYGNSYFDYWGQGTLVTVSS
VL: QIVLTQSPAIMSASPGEKVTITCSATSSVSYMHWFQQKPGTSPKLWIYGTSNLASGVPARFSGSGSGTSYSLTISRMEAEDAATYYCQQRSSYPFTFGQGTKVEIK
Human Ror2 [4]
  Affinity ELISA pH 6.0: 0.54
Human Ror2 [5]
  Affinity ELISA pH 7.4: 0.157
Human Ror2 [6]
  ratio, pH 6.0/7.4: 3.44

B4: HC-A097T (antibody, V domains shown)
VH: EVQLQQSGPELVKPGASVKISCKTSGYTFTEYTMHWMKQSHRKSLEWIGGINTNNGGTGYNQKFKGKATLTVDKSSSTAYMELRSLTSEDSAVYFCTRGSLYSYGNSYFDYWGQGTLVTVSS
VL: QIVLTQSPAIMSASPGEKVTITCSATSSVSYMHWFQQKPGTSPKLWIYGTSNLASGVPARFSGSGSGTSYSLTISRMEAEDAATYYCQQRSSYPFTFGQGTKVEIK
Human Ror2 [4]
  Affinity ELISA pH 6.0: 1.83
Human Ror2 [5]
  Affinity ELISA pH 7.4: 1.69
Human Ror2 [6]
  ratio, pH 6.0/7.4: 1.67

B5: LC-H033L (antibody, V domains shown)
VH: EVQLQQSGPELVKPGASVKISCKTSGYTFTEYTMHWMKQSHRKSLEWIGGINTNNGGTGYNQKFKGKATLTVDKSSSTAYMELRSLTSEDSAVYFCARGSLYSYGNSYFDYWGQGTLVTVSS
VL: QIVLTQSPAIMSASPGEKVTITCSATSSVSYMLWFQQKPGTSPKLWIYGTSNLASGVPARFSGSGSGTSYSLTISRMEAEDAATYYCQQRSSYPFTFGQGTKVEIK
Human Ror2 [1]
  Affinity ELISA pH 6.0: 0.69
Human Ror2 [2]
  Affinity ELISA pH 7.4: 0.332
Human Ror2 [3]
  ratio, pH 6.0/7.4: 2.08

B6: LC-G049C (antibody, V domains shown)
VH: EVQLQQSGPELVKPGASVKISCKTSGYTFTEYTMHWMKQSHRKSLEWIGGINTNNGGTGYNQKFKGKATLTVDKSSSTAYMELRSLTSEDSAVYFCARGSLYSYGNSYFDYWGQGTLVTVSS
VL: QIVLTQSPAIMSASPGEKVTITCSATSSVSYMHWFQQKPGTSPKLWIYCTSNLASGVPARFSGSGSGTSYSLTISRMEAEDAATYYCQQRSSYPFTFGQGTKVEIK
Human Ror2 [1]
  Affinity ELISA pH 6.0: 0.468
Human Ror2 [2]
  Affinity ELISA pH 7.4: 0.133
Human Ror2 [3]
  ratio, pH 6.0/7.4: 3.52

B7: HC-N052V (antibody, V domains shown)
VH: EVQLQQSGPELVKPGASVKISCKTSGYTFTEYTMHWMKQSHRKSLEWIGGIVTNNGGTGYNQKFKGKATLTVDKSSSTAYMELRSLTSEDSAVYFCARGSLYSYGNSYFDYWGQGTLVTVSS
VL: QIVLTQSPAIMSASPGEKVTITCSATSSVSYMHWFQQKPGTSPKLWIYGTSNLASGVPARFSGSGSGTSYSLTISRMEAEDAATYYCQQRSSYPFTFGQGTKVEIK
Human Ror2 [4]
  Affinity ELISA pH 6.0: 0.87
Human Ror2 [5]
  Affinity ELISA pH 7.4: 0.34
Human Ror2 [6]
  ratio, pH 6.0/7.4: 2.56

B8: HC-A097I (antibody, V domains shown)
VH: EVQLQQSGPELVKPGASVKISCKTSGYTFTEYTMHWMKQSHRKSLEWIGGINTNNGGTGYNQKFKGKATLTVDKSSSTAYMELRSLTSEDSAVYFCIRGSLYSYGNSYFDYWGQGTLVTVSS
VL: QIVLTQSPAIMSASPGEKVTITCSATSSVSYMHWFQQKPGTSPKLWIYGTSNLASGVPARFSGSGSGTSYSLTISRMEAEDAATYYCQQRSSYPFTFGQGTKVEIK
Human Ror2 [4]
  Affinity ELISA pH 6.0: 1.89
Human Ror2 [5]
  Affinity ELISA pH 7.4: 1.73
Human Ror2 [6]
  ratio, pH 6.0/7.4: 1.89

B9: HC-A097M (antibody, V domains shown)
VH: EVQLQQSGPELVKPGASVKISCKTSGYTFTEYTMHWMKQSHRKSLEWIGGINTNNGGTGYNQKFKGKATLTVDKSSSTAYMELRSLTSEDSAVYFCMRGSLYSYGNSYFDYWGQGTLVTVSS
VL: QIVLTQSPAIMSASPGEKVTITCSATSSVSYMHWFQQKPGTSPKLWIYGTSNLASGVPARFSGSGSGTSYSLTISRMEAEDAATYYCQQRSSYPFTFGQGTKVEIK
Human Ror2 [4]
  Affinity ELISA pH 6.0: 1.98
Human Ror2 [5]
  Affinity ELISA pH 7.4: 1.7
Human Ror2 [6]
  ratio, pH 6.0/7.4: 1.98

B10: LC-G049P (antibody, V domains shown)
VH: EVQLQQSGPELVKPGASVKISCKTSGYTFTEYTMHWMKQSHRKSLEWIGGINTNNGGTGYNQKFKGKATLTVDKSSSTAYMELRSLTSEDSAVYFCARGSLYSYGNSYFDYWGQGTLVTVSS
VL: QIVLTQSPAIMSASPGEKVTITCSATSSVSYMHWFQQKPGTSPKLWIYPTSNLASGVPARFSGSGSGTSYSLTISRMEAEDAATYYCQQRSSYPFTFGQGTKVEIK
Human Ror2 [1]
  Affinity ELISA pH 6.0: 0.66
Human Ror2 [2]
  Affinity ELISA pH 7.4: 0.268
Human Ror2 [3]
  ratio, pH 6.0/7.4: 2.46

B11: LC-H033G (antibody, V domains shown)
VH: EVQLQQSGPELVKPGASVKISCKTSGYTFTEYTMHWMKQSHRKSLEWIGGINTNNGGTGYNQKFKGKATLTVDKSSSTAYMELRSLTSEDSAVYFCARGSLYSYGNSYFDYWGQGTLVTVSS
VL: QIVLTQSPAIMSASPGEKVTITCSATSSVSYMGWFQQKPGTSPKLWIYGTSNLASGVPARFSGSGSGTSYSLTISRMEAEDAATYYCQQRSSYPFTFGQGTKVEIK
Human Ror2 [1]
  Affinity ELISA pH 6.0: 1.1
Human Ror2 [2]
  Affinity ELISA pH 7.4: 0.536
Human Ror2 [3]
  ratio, pH 6.0/7.4: 2.06

B12: LC-G049H (antibody, V domains shown)
VH: EVQLQQSGPELVKPGASVKISCKTSGYTFTEYTMHWMKQSHRKSLEWIGGINTNNGGTGYNQKFKGKATLTVDKSSSTAYMELRSLTSEDSAVYFCARGSLYSYGNSYFDYWGQGTLVTVSS
VL: QIVLTQSPAIMSASPGEKVTITCSATSSVSYMHWFQQKPGTSPKLWIYHTSNLASGVPARFSGSGSGTSYSLTISRMEAEDAATYYCQQRSSYPFTFGQGTKVEIK
Human Ror2 [1]
  Affinity ELISA pH 6.0: 1.87
Human Ror2 [2]
  Affinity ELISA pH 7.4: 0.118
Human Ror2 [3]
  ratio, pH 6.0/7.4: 15.9

B13: HC-T053D (antibody, V domains shown)
VH: EVQLQQSGPELVKPGASVKISCKTSGYTFTEYTMHWMKQSHRKSLEWIGGINDNNGGTGYNQKFKGKATLTVDKSSSTAYMELRSLTSEDSAVYFCARGSLYSYGNSYFDYWGQGTLVTVSS
VL: QIVLTQSPAIMSASPGEKVTITCSATSSVSYMHWFQQKPGTSPKLWIYGTSNLASGVPARFSGSGSGTSYSLTISRMEAEDAATYYCQQRSSYPFTFGQGTKVEIK
Human Ror2 [4]
  Affinity ELISA pH 6.0: 1.11
Human Ror2 [5]
  Affinity ELISA pH 7.4: 0.222
Human Ror2 [6]
  ratio, pH 6.0/7.4: 4.99

B14: HC-A097S (antibody, V domains shown)
VH: EVQLQQSGPELVKPGASVKISCKTSGYTFTEYTMHWMKQSHRKSLEWIGGINTNNGGTGYNQKFKGKATLTVDKSSSTAYMELRSLTSEDSAVYFCSRGSLYSYGNSYFDYWGQGTLVTVSS
VL: QIVLTQSPAIMSASPGEKVTITCSATSSVSYMHWFQQKPGTSPKLWIYGTSNLASGVPARFSGSGSGTSYSLTISRMEAEDAATYYCQQRSSYPFTFGQGTKVEIK
Human Ror2 [4]
  Affinity ELISA pH 6.0: 1.67
Human Ror2 [5]
  Affinity ELISA pH 7.4: 1.69
Human Ror2 [6]
  ratio, pH 6.0/7.4: 1.67

B15: LC-Y031D (antibody, V domains shown)
VH: EVQLQQSGPELVKPGASVKISCKTSGYTFTEYTMHWMKQSHRKSLEWIGGINTNNGGTGYNQKFKGKATLTVDKSSSTAYMELRSLTSEDSAVYFCARGSLYSYGNSYFDYWGQGTLVTVSS
VL: QIVLTQSPAIMSASPGEKVTITCSATSSVSDMHWFQQKPGTSPKLWIYGTSNLASGVPARFSGSGSGTSYSLTISRMEAEDAATYYCQQRSSYPFTFGQGTKVEIK
Human Ror2 [1]
  Affinity ELISA pH 6.0: 0.911
Human Ror2 [2]
  Affinity ELISA pH 7.4: 0.405
Human Ror2 [3]
  ratio, pH 6.0/7.4: 2.25

B16: HC-N052L (antibody, V domains shown)
VH: EVQLQQSGPELVKPGASVKISCKTSGYTFTEYTMHWMKQSHRKSLEWIGGILTNNGGTGYNQKFKGKATLTVDKSSSTAYMELRSLTSEDSAVYFCARGSLYSYGNSYFDYWGQGTLVTVSS
VL: QIVLTQSPAIMSASPGEKVTITCSATSSVSYMHWFQQKPGTSPKLWIYGTSNLASGVPARFSGSGSGTSYSLTISRMEAEDAATYYCQQRSSYPFTFGQGTKVEIK
Human Ror2 [4]
  Affinity ELISA pH 6.0: 0.911
Human Ror2 [5]
  Affinity ELISA pH 7.4: 0.433
Human Ror2 [6]
  ratio, pH 6.0/7.4: 2.1

B17: LC-R090H (antibody, V domains shown)
VH: EVQLQQSGPELVKPGASVKISCKTSGYTFTEYTMHWMKQSHRKSLEWIGGINTNNGGTGYNQKFKGKATLTVDKSSSTAYMELRSLTSEDSAVYFCARGSLYSYGNSYFDYWGQGTLVTVSS
VL: QIVLTQSPAIMSASPGEKVTITCSATSSVSYMHWFQQKPGTSPKLWIYGTSNLASGVPARFSGSGSGTSYSLTISRMEAEDAATYYCQQHSSYPFTFGQGTKVEIK
Human Ror2 [1]
  Affinity ELISA pH 6.0: 0.56
Human Ror2 [2]
  Affinity ELISA pH 7.4: 0.256
Human Ror2 [3]
  ratio, pH 6.0/7.4: 2.19
